Measurements as given in doi:10.1101/869289 (bioRxiv, 2019).

T1: acylglycerol kinase (AGK) (human, UniProt Q53H12 1-422)
T1 sequence (looked up): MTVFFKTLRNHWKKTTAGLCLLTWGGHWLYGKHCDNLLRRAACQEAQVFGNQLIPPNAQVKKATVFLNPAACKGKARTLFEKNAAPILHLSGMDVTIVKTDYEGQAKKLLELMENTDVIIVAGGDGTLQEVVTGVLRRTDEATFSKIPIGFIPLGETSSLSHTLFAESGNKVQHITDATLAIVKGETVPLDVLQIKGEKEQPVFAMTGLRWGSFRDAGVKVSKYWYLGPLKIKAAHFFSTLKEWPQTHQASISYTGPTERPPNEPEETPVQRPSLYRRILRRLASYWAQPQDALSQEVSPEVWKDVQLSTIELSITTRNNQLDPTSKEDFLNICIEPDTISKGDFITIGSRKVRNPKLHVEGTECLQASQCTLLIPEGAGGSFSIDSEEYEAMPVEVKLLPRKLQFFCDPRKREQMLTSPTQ

B1: Tim10b (natural protein, human, UniProt Q9Y5J6 1-103, looked up)
chain: MERQQQQQQQLRNLRDFLLVYNRMTELCFQRCVPSLHHRALDAEEEACLHSCAGKLIHSNHRLMAAYVQLMPALVQRRIADYEAASAVPGVAAEQPGVSPSGS
B2: Tim22 (natural protein, human, UniProt Q9Y584 1-194, looked up)
chain: MAAAAPNAGGSAPETAGSAEAPLQYSLLLQYLVGDKRQPRLLEPGSLGGIPSPAKSEEQKMIEKAMESCAFKAALACVGGFVLGGAFGVFTAGIDTNVGFDPKDPYRTPTAKEVLKDMGQRGMSYAKNFAIVGAMFSCTECLIESYRGTSDWKNSVISGCITGGAIGFRAGLKAGAIGCGGFAAFSAAIDYYLR
B3: Tim29 (natural protein, human, UniProt Q9BSF4 32-260, looked up)
chain: GSWARALLRDYAEACRDASAEARARPGRAAVYVGLLGGAAACFTLAPSEGAFEEALLEASGTLLLLAPATRNRESEAFVQRLLWLRGRGRLRYVNLGLCSLVYEAPFDAQASLYQARCRYLQPRWTDFPGRVLDVGFVGRWWVLGAWMRDCDINDDEFLHLPAHLRVVGPQQLHSETNERLFDEKYKPVVLTDDQVDQALWEEQVLQKEKKDRLALSQAHSLVQAEAPR
B4: Tim10a (natural protein, human, UniProt P62072 1-90, looked up)
chain: MDPLRAQQLAAELEVEMMADMYNRMTSACHRKCVPPHYKEAELSKGESVCLDRCVSKYLDIHERMGKKLTELSMQDEELMKRVQQSSGPA

Experiments:
Test in all cases: cryo-EM structure
Tim29 = target: B3
[1] = target: T1, acylglycerol kinase (AGK)
Tim22 = target: B2
Tim10b = target: B1
Tim10a = target: B4

Row | binding result (Tim29) | binding result [1] | binding result (Tim22) | binding result (Tim10b) | stoichiometry N (Tim10a) | Binder
1 | binds | binds |  |  |  | B1
2 | binds |  |  |  |  | B2
3 | binds | binds | binds | binds | 1 Tim9:Tim10a (3:3 in the hexamer) | Tim9 (natural protein, human, UniProt Q9Y5J7 1-89, looked up) MAAQIPESDQIKQFKEFLGTYNKLTETCFLDCVKDFTTREVKPEETTCSEHCLQKYLKMTQRISMRFQEYHIQQNEALAAKAGLLGQPR
4 |  | binds |  |  |  | B3
5 | binds | binds | binds | binds |  | B4
